Assays:
[1] = molecular target: human Sdc2 on Human Umbilical Vein Endothelial Cells (HUVEC) (human, UniProt P34741 19-201); assay: cell-based or functional assay
human Sdc2 [2] = molecular target: T1, human Sdc2 (human, UniProt P34741 19-144, limits assumed); assay: Kd (human Sdc2), summary table of the mAbs
T1 construct: Antigen of the Octet tandem binning, loaded on biosensors at 100 nM; also called huSdc2; hSdc2

human Sdc2 [3] = molecular target: T1, human Sdc2; assay: Octet BLI, heading box over the sensorgram
pig Sdc2 [4] = molecular target: T2, pig Sdc2 (pig, UniProt F1S0L5 19-145); assay: Octet BLI, heading box over the sensorgram
T2 construct: also called pSdc2

human Sdc2 [5] = molecular target: T1, human Sdc2; assay: Octet tandem binning; saturating Ab f3 19838-6N03-A
Description: (§1) These studies were performed in a tandem binning assay format with human Sdc2, used as the antigen (concentration of 100 nM). Antigen loaded biosensors were dipped in a saturating solution of antibody (25 μg/ml) for 240 seconds followed by a competing antibody at 5 μg/ml for 180 seconds. […] Since saturation is not possible to achieve saturation with these clones, they are removed in as ligands, but retained in the analyte orientation in the analysis. A table summarizing the results of epitope binning of the 18 antibodies against huSdc2 is illustrated in FIG. 30. Data is normalized, where the raw binding signal from Competing Ab for a given Saturating Ab is divided by binding in the absence a […] (“buffer”). The threshold determining the matrix color is adjustable and dependent upon Ag-Ab binding. […] Table rows are based on similar looking binding profiles. Note that the coloration/cutoff is subjective, yellow color added to represent injections with ambiguous or very weak sandwiching signals. FIG. 31 illustrates a clustergram of the epitope binning studies, which was generated from the normalized binning data by importation into the statistical computing program R (The R Project for Statistical Computing: at r-project.org) and generation of a clustergram with the pvclust package.

human Sdc2 [6] = molecular target: T1, human Sdc2; assay: Octet tandem binning; saturating Ab m2 19838-8G17-A
Description: as §1

human Sdc2 [7] = molecular target: T1, human Sdc2; assay: Octet tandem binning; saturating Ab f9 19838-6-E17-A
Description: as §1

human Sdc2 [8] = molecular target: T1, human Sdc2; assay: Octet tandem binning; saturating Ab f12 19838-6-N03-A
Description: as §1

human Sdc2 [9] = molecular target: T1, human Sdc2; assay: Octet tandem binning; saturating Ab m1 19838-20H19-AB
Description: as §1

human Sdc2 [10] = molecular target: T1, human Sdc2; assay: Octet tandem binning; saturating Ab f10 19838-10-I12-A
Description: as §1

human Sdc2 [11] = molecular target: T1, human Sdc2; assay: Octet tandem binning; saturating Ab f11 19838-20-H19-A
Description: as §1

human Sdc2 [12] = molecular target: T1, human Sdc2; assay: Octet tandem binning; saturating Ab f6 19844-R3-P3-E09
Description: as §1

human Sdc2 [13] = molecular target: T1, human Sdc2; assay: Octet tandem binning; saturating Ab f7 19844-R3-P3-A12
Description: as §1

human Sdc2 [14] = molecular target: T1, human Sdc2; assay: Octet tandem binning; saturating Ab m7 19844-R3-P1-E07
Description: as §1

human Sdc2 [15] = molecular target: T1, human Sdc2; assay: Octet tandem binning; saturating Ab f5 19844-R4M-P3-E06
Description: as §1

human Sdc2 [16] = molecular target: T1, human Sdc2; assay: Octet tandem binning; saturating Ab f8 19844-R4M-P2-C02
Description: as §1

human Sdc2 [17] = molecular target: T1, human Sdc2; assay: Octet tandem binning; saturating Ab m4 19844-R4M-P1-A10
Description: as §1

human Sdc2 [18] = molecular target: T1, human Sdc2; assay: Octet tandem binning; Buffer in place of a saturating Ab
Description: as §1

human Sdc2 [19] = molecular target: T1, human Sdc2; assay: Octet BLI, HIS1K sensor loaded with huSdc2, antibody as sample; Full R2 0.9738
pig Sdc2 [20] = molecular target: T2, pig Sdc2; assay: Octet BLI, HIS1K sensor loaded with pigSdc2, antibody as sample; Full R2 0.9504
human Sdc2 [21] = molecular target: T1, human Sdc2; assay: Octet tandem binning; saturating Ab m6 19838-20H19-AA (marked non-binding ligand)
Description: as §1

human Sdc2 [22] = molecular target: T1, human Sdc2; assay: Octet tandem binning; saturating Ab m3 19844-R3-P1-C02 (row boxed, self-self >0.09)
Description: as §1

human Sdc2 [23] = molecular target: T1, human Sdc2; assay: Octet tandem binning; saturating Ab m8 19844-R4M-P1-B01 (marked non-binding ligand)
Description: as §1

human Sdc2 [24] = molecular target: T1, human Sdc2; assay: Octet tandem binning; saturating Ab m5 19844-R4M-P3-A12 (row boxed, self-self >0.09)
Description: as §1

human Sdc2 [25] = molecular target: T1, human Sdc2; assay: Octet BLI, heading box over the sensorgram; remark: listed apart in the source
human Sdc2 [26] = molecular target: T1, human Sdc2; assay: Octet tandem binning; saturating Ab f4 19844-R3-P3-C11
Description: as §1

human Sdc2 [27] = molecular target: T1, human Sdc2; assay: Octet BLI, AHC sensor loaded with the antibody, huSdc2 as sample; Full R2 0.9525
Description: In order to characterize the binding affinity and in vivo/in vitro functional ability of the twelve clones generated by the previous studies and disclosed in Table 1, a series of assays were performed on each clone. These assays measured the affinity of each antibody clone for human, pig, and mouse Sdc2 using an Octet® binding assay system. Additionally, the functional ability of each clone to inhibit VEGFA-driven permeability (see Santiago, et al. (2021) J Am Heart Assoc. 10(18):e020521) was assessed in two therapeutic settings: a “prevention” study in which three concentrations of antibody (5 μg/ml, 10 μg/ml, 15 μg/ml, 20 μg/ml, and/or 40 μg/ml depending on the study) were pre-incubated for an hour before administration of 100 ng/ml of VEGFA, and a “treatment” study in which 3 hours of pre-treatment with 100 ng/ml VEGFA were followed by treatment with antibody at 20 μg/ml or 40 μg/ml. Results are shown for 8-G17 in FIG. 8 and FIG. 9, 20-H19-AB in FIG. 10 and FIG. 11 (FIG. 12 for monkey ECs), R3-P3-C11 in FIG. 13 and FIG. 14, R4M-P3-E06 in FIG. 15 and FIG. 16, R3-P3-E09 in FIG. 17 and FIG. 18, R3-P1-C02 in FIG. 19 and FIG. 20, R3-P3-A12 in FIG. 21 and FIG. 22, R4M-P3-A12 in FIG. 23 and FIG. 24, and R4M-P1-A10 in FIG. 25 and FIG. 26.

human Sdc2 [28] = molecular target: T1, human Sdc2; assay: Octet BLI, AHC sensor loaded with the antibody, huSdc2 as sample (curves huSdc2, 2000 and 1000, unit inferred); Full R2 0.9525

T1 sequence (P34741 19-144 limits assumed): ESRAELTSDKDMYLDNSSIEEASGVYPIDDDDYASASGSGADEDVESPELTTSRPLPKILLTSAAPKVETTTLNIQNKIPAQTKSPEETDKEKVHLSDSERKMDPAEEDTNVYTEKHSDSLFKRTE
human Sdc2 on Human Umbilical Vein Endothelial Cells (HUVEC), sequence (P34741 19-201 limits assumed): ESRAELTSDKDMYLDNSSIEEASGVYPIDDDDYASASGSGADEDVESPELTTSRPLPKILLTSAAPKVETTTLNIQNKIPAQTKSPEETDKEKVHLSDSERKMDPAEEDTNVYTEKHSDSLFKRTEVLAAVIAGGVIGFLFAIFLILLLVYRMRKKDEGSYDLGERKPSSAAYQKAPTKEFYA

B1: R3-P3-C11 (antibody, human IgG1, kappa, V domains shown)
VH: EVQLVESGGGLVQPGRSLRLACEASGFTFNNYAVHWVRQAPGKGLEWVAVISYDGTNKYYSDSMKGRFTISRDNSKNTLYLQINSLRVEDTAVYFCARGNYVRRDSFDIWGQGTMVTVSS
VL: DIQMTQSPPSLSASVGDRVTITCRASQSISSYLNWYQQKPGKAPKLLIYGASSLQSGVPLRFSGSGSGADFTLTISSLQPEDFATYYCQQSYISPITFGQGTRLEIKR
notes: human IgG1 kappa from the phage campaign
[1]
  % Inhibition of VEGFA-induced permeability at 24hrs (20ug/ml): 100%
Human Sdc2 [2]
  Kd: 2.26 nM
Human Sdc2 [3]
  Kd: ~2.26 nM
Pig Sdc2 [4]
  Kd: ~10.2 nM
Human Sdc2 [5]
  raw competing-Ab binding signal: 0.645
Human Sdc2 [6]
  raw competing-Ab binding signal: 0.629
Human Sdc2 [7]
  raw competing-Ab binding signal: 0.542
Human Sdc2 [8]
  raw competing-Ab binding signal: 0.697
Human Sdc2 [9]
  raw competing-Ab binding signal: 0.569
Human Sdc2 [10]
  raw competing-Ab binding signal: 0.351
Human Sdc2 [11]
  raw competing-Ab binding signal: 0.585
Human Sdc2 [12]
  raw competing-Ab binding signal: 0.299
Human Sdc2 [13]
  raw competing-Ab binding signal: -0.0267
Human Sdc2 [14]
  raw competing-Ab binding signal: 0.573
Human Sdc2 [15]
  raw competing-Ab binding signal: 0.61
Human Sdc2 [16]
  raw competing-Ab binding signal: 0.479
Human Sdc2 [17]
  raw competing-Ab binding signal: 0.518
Human Sdc2 [18]
  raw competing-Ab binding signal: 0.523
Human Sdc2 [19]
  Kd: 2.26 nM
  koff: 0.00304 s⁻¹
  kon: 1.34e+06 M⁻¹ s⁻¹
Pig Sdc2 [20]
  Kd: 10.2 nM
  koff: 0.0417 s⁻¹
  kon: 4.1e+06 M⁻¹ s⁻¹
Human Sdc2 [21]
  raw competing-Ab binding signal: 0.593
Human Sdc2 [22]
  raw competing-Ab binding signal: 0.491
Human Sdc2 [23]
  raw competing-Ab binding signal: 0.576
Human Sdc2 [24]
  raw competing-Ab binding signal: 0.562

B2: R4M-P3-E06 (antibody, human IgG1, kappa, V domains shown)
VH: EVQLVESGGGVVQPGGSLRLSCAASGFTFSNYGMHWVRQAPGKGLEWVATISYDGTKKYYPDSVRGRFTISRDNSENMLYLQMDSLRLEDTAVIYCAKDLVSGSRYGFAFDSWGPGTLVTVSS
VL: DIVMTQSPLSLPVTLGQPASISCRSSQSLVHSDGNTYLNWFQQRPGQSPRRLIYKVSNRDSGVPDRFSGTGSGTDFTLKISRVEADDVGVYYCMQGTHWPPIFGQGTRLEIKR
notes: as for B1
[1]
  % Inhibition of VEGFA-induced permeability at 24hrs (20ug/ml): 95%
Human Sdc2 [2]
  Kd: 448 nM
Human Sdc2 [25]
  Kd: ~480 nM
Human Sdc2 [5]
  raw competing-Ab binding signal: 0.209
Human Sdc2 [6]
  raw competing-Ab binding signal: 0.183
Human Sdc2 [7]
  raw competing-Ab binding signal: 0.231
Human Sdc2 [8]
  raw competing-Ab binding signal: 0.252
Human Sdc2 [9]
  raw competing-Ab binding signal: 0.284
Human Sdc2 [10]
  raw competing-Ab binding signal: 0.241
Human Sdc2 [11]
  raw competing-Ab binding signal: 0.311
Human Sdc2 [26]
  raw competing-Ab binding signal: 0.0598
Human Sdc2 [12]
  raw competing-Ab binding signal: 0.025
Human Sdc2 [13]
  raw competing-Ab binding signal: 0.0799
Human Sdc2 [14]
  raw competing-Ab binding signal: 0.247
Human Sdc2 [16]
  raw competing-Ab binding signal: 0.0709
Human Sdc2 [17]
  raw competing-Ab binding signal: 0.116
Human Sdc2 [18]
  raw competing-Ab binding signal: 0.256
Human Sdc2 [27]
  koff: 0.041 s⁻¹
  kon: 84000 M⁻¹ s⁻¹
Human Sdc2 [21]
  raw competing-Ab binding signal: 0.251
Human Sdc2 [22]
  raw competing-Ab binding signal: 0.0913
Human Sdc2 [23]
  raw competing-Ab binding signal: 0.25
Human Sdc2 [24]
  raw competing-Ab binding signal: 0.223
Human Sdc2 [28]
  Kd: 488 nM

Reference: patent US20250282885A1 (VST BIO, published 2025)
